Reference: the supplement of paper PMC9732359
± gives the uncertainty stated by the source.

Assay: protein stability index of a GFP-peptide fusion (yeast GPS) (PSI 1-4); higher = more stable; sorted into four equal gates, so the index is relative within each strain
Procedure, shortened: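 Each library plasmid carries Cherry plus GFP with a tiled 17-residue yeast protein peptide fused downstream, and the pooled library was carried in yeast. Mid-log cultures in leucine-free medium were sorted into four equal gates by GFP/Cherry ratio. Reads from Illumina sequencing of PCR-amplified plasmids from each gate were assigned to strains by barcodes. Per peptide, the protein stability index was computed as the summed products of gate read frequency and gate number.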

Sequence | protein stability index (doa10∆) | protein stability index (pdr5∆) | protein stability index (san1∆) | protein stability index (ubr1∆)
ASKYNCDKSVCRKCYAR [RPL40A] | 2.81 ± 0.056 | 2.9 ± 0.058 | 2.87 ± 0.046 | 2.73 ± 0.053
QEITTNLENHFKKSKID [SCL1] | 3.12 ± 0.089 | 3.15 ± 0.08 | 3.1 ± 0.06 | 3.22 ± 0.063
LMRELLKMMKLIVDTHV [PRP8] | 1.9 ± 0.083 | 1.34 ± 0.06 | 2.29 ± 0.088 | 1.39 ± 0.06
REDLNKAEYVDQYDAER [RPO31] | 3.15 ± 0.1 | 3.11 ± 0.11 | 3.33 ± 0.092 | 3.34 ± 0.083
GKYVIAGHVSGVITVHN [RPN14] | 1.55 ± 0.098 | 2.48 ± 0.092 | 2.48 ± 0.1 | 3.23 ± 0.038
KELFEKTFDYVSDHLDA [SMC1] | 3.35 ± 0.085 | 2.87 ± 0.068 | 2.9 ± 0.077 | 3 ± 0.049
SCEVEEIGLLGGRYVYP [SNU114] | 3.27 ± 0.092 | 3.04 ± 0.066 | 2.85 ± 0.065 | 2.8 ± 0.06
TGESWVKLTYNSPSSAL [YDL088C/ASM4] | 2.31 ± 0.058 | 1.75 ± 0.055 | 2.08 ± 0.067 | 2.02 ± 0.04
IKMQRQFSQLNDPNAAV [MED6] | 3.01 ± 0.07 | 3.04 ± 0.059 | 3.09 ± 0.06 | 3.16 ± 0.059
DPLYDITKVPALEFLNT [REC8] | 2.32 ± 0.069 | 2.72 ± 0.093 | 2.61 ± 0.11 | 2.62 ± 0.083
DINPPLVFILAVVGNNM [RRP42] | 1.84 ± 0.083 | 1.78 ± 0.058 | 1.96 ± 0.082 | 1.52 ± 0.046
FAEYIQANIQLYSIRED [PRE1] | 2.39 ± 0.1 | 2.67 ± 0.091 | 2.49 ± 0.068 | 2.59 ± 0.091
DDLKKDHIAIDWEDEEK [DSN1] | 2.73 ± 0.083 | 3.06 ± 0.072 | 3.07 ± 0.065 | 2.82 ± 0.063
TLETIEIHPITFPPEVL [RRP43] | 1.9 ± 0.045 | 2.25 ± 0.045 | 2.3 ± 0.06 | 2.01 ± 0.035
ELTKEEAMYKLQLASLQ [SMC3] | 2.89 ± 0.1 | 2.88 ± 0.068 | 2.55 ± 0.084 | 2.64 ± 0.053
NGIIMNGTLIGCVSYSP [YMR153W/NUP53] | 1.99 ± 0.066 | 1.95 ± 0.076 | 2.46 ± 0.21 | 2.24 ± 0.083
MFGAKPAGTSLFGNNAG [YGL172W/NUP49] | 3.16 ± 0.076 | 3.08 ± 0.067 | 3.01 ± 0.072 | 3.06 ± 0.053
WRFLQILRNGIDYLQRN [POP1] | 3.05 ± 0.059 | 2.82 ± 0.054 | 2.97 ± 0.052 | 2.72 ± 0.048
KFFIMIVKGNIIDEIKC [POP4] | 1.32 ± 0.055 | 1.47 ± 0.055 | 1.49 ± 0.094 | 1.66 ± 0.056
IVDTSGRHHQEEELFQE [SRP54] | 3.31 ± 0.07 | 3.13 ± 0.043 | 3.07 ± 0.056 | 3.24 ± 0.053
MLSKTKVYYFQGGNNEL [RPL30] | 2.87 ± 0.15 | 3.17 ± 0.26 | 2.99 ± 0.14 | 3.4 ± 0.25
MEGNAQPVNFNRSWDHA [RPO31] | 2.22 ± 0.11 | 2.31 ± 0.071 | 2.39 ± 0.13 | 2.35 ± 0.067
GESARRFQKCFPPGVIG [RPC40] | 2.24 ± 0.1 | 2.34 ± 0.18 |  | 2.83 ± 0.12
FSPVISQSLTSILVIVQ [SWI1] | 1.43 ± 0.048 | 1.66 ± 0.05 | 1.33 ± 0.076 | 1.33 ± 0.04
NSDDCMMEEIINVVIKA [ECM29] | 3.31 ± 0.14 | 3.67 ± 0.18 | 3.14 ± 0.11 | 2.97 ± 0.11
EKSKALESEIASSSAKL [SMC2] | 2.64 ± 0.071 | 2.96 ± 0.078 | 3.03 ± 0.043 | 2.97 ± 0.075

Sequence | protein stability index (doa10∆) | protein stability index (pdr5∆) | protein stability index (san1∆) | protein stability index (ubr1∆)
IPSAAFNFFEPIKEAKI [YMR129W/POM152] | 1.98 ± 0.039 | 2.27 ± 0.037 | 2.15 ± 0.044 | 2.44 ± 0.025
TENEIPNLIEKMVAKGL [BRR2] | 2.85 ± 0.17 | 2.81 ± 0.13 | 2.63 ± 0.093 | 2.78 ± 0.11
HAIIIFGYPETIANSII [YMR153W/NUP53] | 1.91 ± 0.078 | 2.04 ± 0.065 | 2.17 ± 0.098 | 2.92 ± 0.046
DEHHESFELKEEDISDL [RRP6] | 3.01 ± 0.072 | 3.23 ± 0.084 | 2.9 ± 0.075 | 3.15 ± 0.059
IGIMASDGIVLAAERKV [PRE9] | 2.79 ± 0.29 |  | 3.37 ± 0.15 | 
PNYLHLVSSYLNKSDLL [YML103C/NUP188] | 1.96 ± 0.038 | 2.27 ± 0.034 | 2.21 ± 0.04 | 1.8 ± 0.031
PNLATFISSGTSLLDSL [YJL039C/NUP192] | 2.23 ± 0.047 | 2.6 ± 0.046 | 2.23 ± 0.057 | 2.1 ± 0.037
KPLTENCKKKKKRKKKN [RMP1] | 2.97 ± 0.19 | 1.89 ± 0.28 | 1.5 ± 0.14 | 3.38 ± 0.19
PSESEHPIRVLMASVIL [YDL116W/NUP84] | 1.87 ± 0.076 | 1.89 ± 0.064 | 1.75 ± 0.062 | 1.78 ± 0.08
DEEENGSSDEDLKSLNV [SSN2] | 3.24 ± 0.11 | 3.54 ± 0.1 | 3.35 ± 0.057 | 3.23 ± 0.093
HVLRGVESPDKNVRFRV [YCG1] |  | 3.68 ± 0.2 | 3.16 ± 0.15 | 
NTNNNDTIATSATPNAA [GAL11] | 2.7 ± 0.046 | 2.88 ± 0.046 | 2.59 ± 0.044 | 2.74 ± 0.043
HILRISFLDRKRAKEFI [SIN4] | 2.42 ± 0.079 | 2.67 ± 0.078 | 2.05 ± 0.063 | 2.4 ± 0.049
DYFFYFLVLYDVKTAEE [NUT1] | 1.52 ± 0.043 | 1.46 ± 0.044 | 1.62 ± 0.094 | 1.76 ± 0.04
DGILRLYDALEPSDLRS [YGL100W/SEH1] | 3.02 ± 0.061 | 3.02 ± 0.051 | 2.77 ± 0.041 | 2.99 ± 0.042
VKKQKSARGIETRPAQV [FAS2] | 2.77 ± 0.1 | 3 ± 0.094 | 3.1 ± 0.083 | 3.09 ± 0.082
EIPETGEYSVKLLKGAT [FAS2] | 3.18 ± 0.12 | 3.46 ± 0.089 | 3.32 ± 0.049 | 3.35 ± 0.078
MNAGGRNVTIQLENADT [RPN2] |  | 2.44 ± 0.18 | 1.62 ± 0.29 | 
KIHSILPVMESLDSCTA [YJR042W/NUP85] | 2.24 ± 0.09 | 2.23 ± 0.079 | 2 ± 0.13 | 2.24 ± 0.068
MASTELSLKRTLTDILE [RPN4] | 1.26 ± 0.18 | 2.65 ± 0.17 | 2.72 ± 0.16 | 2.02 ± 0.29
SLYAYCHSKLRGQQVEN [GRR1] | 2.51 ± 0.1 | 2.52 ± 0.092 | 2.54 ± 0.1 | 2.6 ± 0.097
LMDKCLPKVRIRTRRAA [DIS3] | 1.86 ± 0.06 | 1.34 ± 0.048 | 1.42 ± 0.085 | 1.5 ± 0.039
KSLEEQEYAIEMKIGSI [SMC1] | 2.71 ± 0.11 | 3.23 ± 0.18 | 2.67 ± 0.11 | 2.66 ± 0.2
KLWRKIARLYSCISISD [RRI2] | 2.87 ± 0.11 | 2.1 ± 0.075 | 2.69 ± 0.064 | 1.61 ± 0.038
TNAFLDSLTRAVKDQQK [SNF2] | 2.46 ± 0.072 | 2.47 ± 0.071 | 2.68 ± 0.049 | 2.56 ± 0.046
EVAKRLVELMFIRSTNS [FAS1] | 1.79 ± 0.067 | 2.14 ± 0.069 | 2.5 ± 0.085 | 1.49 ± 0.042
